Results on one molecule are retold here after patent CN111690058A (SANYOU BIO INC; SHANGHAI ZJ BIO TECH CO LTD, dated 2020).

Assay [1] concerns the target T1, S蛋白RBD-His (319Arg-532Asn) (2019-nCoV (SARS-CoV-2), UniProt P0DTC2 319-532).
The target of assay [2] is T1, S蛋白RBD-His (319Arg-532Asn). The assay can be described thus: BLI (Fortebio), RBD-His on Anti-Penta-HIS sensor, antibody in solution. A general note: BLI is a label-free optical method that tracks binding on a fibre tip over time.

B1: 候选抗体P16-A3 (全长人IgG1, κ轻链) (antibody, V domains shown)
VH: QVQLVESGGGVVQPGRSLRLSCAASGFTFSSYGMHWVRQAPGKGLEWVAVISYDGSNKYYADSVKGRFTISRDNSKNTLYLQMNSLRAEDTAVYYCARAYSSSWLLQSFYYYGMDVWGQGTTVTVSS
VL: NIQLTQSPVSLSASVGDRVTLTCRASQGIGYSLVWYQKKPGTAPKLLIFDASTLQSGVPSRFSGSGSGTDFTLTISSLQPEDSATYYCQQVIHYPLTFGGGTKVEIK
B1: the IC50 – broadly, the point on the concentration scale where inhibition reaches its midpoint – in assay [1] amounted to 7.7 nM. Further, in assay [2], the dissociation constant Kd – broadly, the equilibrium constant for the complex coming apart – is 0.415 nM; the off-rate constant (koff) (usually a measure of how fast the partners let go of each other) was found to be 7.17e-05 s⁻¹; the kon (usually a measure of how fast the partners come together) came to 173000 M⁻¹ s⁻¹.
